Article PMC3021753

T1: YeeV fused to the GAL4 DNA binding domain (pGBD-C1) (E. coli), P64524
T1 chain: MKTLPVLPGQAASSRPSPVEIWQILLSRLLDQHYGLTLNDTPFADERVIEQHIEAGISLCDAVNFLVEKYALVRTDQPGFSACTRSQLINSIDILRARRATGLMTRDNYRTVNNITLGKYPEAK


Columns and labels:
[1] = target: MreB fused to the GAL4 DNA binding domain (pGBD-C1) (E. coli), P0A9X4; assay: two-hybrid; settings: remark: other sources report otherwise
[2] = target: T1, YeeV fused to the GAL4 DNA binding …; assay: two-hybrid; settings: remark: other sources report otherwise

| Binder | β-Galactosidase activity (Miller Units) [1] [Miller Units] | β-Galactosidase activity (Miller Units) [2] [Miller Units] |
| --- | --- | --- |
| FtsZ fused to the GAL4 activation domain (pGAD-C1), P0A9A6 1-383 (natural protein) MFEPMELTNDAVIKVIGVGGGGGNAVEHMVRERIEGVEFFAVNTDAQALRKTAVGQTIQIGSGITKGLGAGANPEVGRNAADEDRDALRAALEGADMVFIAAGMGGGTGTGAAPVVAEVAKDLGILTVAVVTKPFNFEGKKRMAFAEQGITELSKHVDSLITIPNDKLLKVLGRGISLLDAFGAANDVLKGAVQGIAELITRPGLMNVDFADVRTVMSEMGYAMMGSGVASGEDRAEEAAEMAISSPLLEDIDLSGARGVLVNITAGFDLRLDEFETVGNTIRAFASDNATVVIGTSLDPDMNDELRVTVVATGIGMDKRPEITLVTNKQVQQPVMDRYQQHGMAPLTQEQKPVAKVVNDNAPQTAKEPDYLDIPAFLRKQAD | 345 |  |
| MreB fused to the GAL4 activation domain, P0A9X4 1-347 (natural protein) MLKKFRGMFSNDLSIDLGTANTLIYVKGQGIVLNEPSVVAIRQDRAGSPKSVAAVGHDAKQMLGRTPGNIAAIRPMKDGVIADFFVTEKMLQHFIKQVHSNSFMRPSPRVLVCVPVGATQVERRAIRESAQGAGAREVFLIEEPMAAAIGAGLPVSEATGSMVVDIGGGTTEVAVISLNGVVYSSSVRIGGDRFDEAIINYVRRNYGSLIGEATAERIKHEIGSAYPGDEVREIEVRGRNLAEGVPRGFTLNSNEILEALQEPLTGIVSAVMVALEQCPPELASDISERGMVLTGGGALLRNLDRLLMEETGIPVVVAEDPLTCVARGGGKALEMIDMHGGDLFSEE |  | 98 |
